Measured values as given in doi:10.1101/2025.05.29.656919 (bioRxiv, 2025).
Where a chain is given by its changes, count along the chain named. Numbers in names are those of the source.

Key:
Test in all cases: pull-down
[1] = molecular target: T1, Glutathione S-transferase-fused VDAC2 (Arabidopsis, UniProt Q9FJX3 1-276)
T1 sequence (looked up): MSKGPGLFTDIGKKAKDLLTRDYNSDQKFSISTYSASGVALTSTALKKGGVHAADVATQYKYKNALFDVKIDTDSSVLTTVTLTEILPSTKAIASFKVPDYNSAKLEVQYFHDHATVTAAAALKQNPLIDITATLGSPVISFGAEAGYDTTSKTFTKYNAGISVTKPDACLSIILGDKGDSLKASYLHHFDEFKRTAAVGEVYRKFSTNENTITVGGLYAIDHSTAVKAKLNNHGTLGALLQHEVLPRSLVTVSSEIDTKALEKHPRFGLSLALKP

[2] = molecular target: T2, Glutathione S-transferase-fused VDAC3 (Arabidopsis, UniProt Q9SMX3 1-274)
T2 sequence (looked up): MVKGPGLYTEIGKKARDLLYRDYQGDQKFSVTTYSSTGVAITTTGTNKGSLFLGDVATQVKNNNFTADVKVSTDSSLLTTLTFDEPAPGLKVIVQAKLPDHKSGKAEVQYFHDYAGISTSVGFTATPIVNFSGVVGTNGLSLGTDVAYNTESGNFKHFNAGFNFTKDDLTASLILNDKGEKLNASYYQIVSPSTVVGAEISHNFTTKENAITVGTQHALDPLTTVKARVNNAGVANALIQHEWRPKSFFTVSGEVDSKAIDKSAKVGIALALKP

[3] = molecular target: T3, Glutathione S-transferase-fused VDAC1 (Arabidopsis, UniProt Q9SRH5 1-276)
T3 sequence (looked up): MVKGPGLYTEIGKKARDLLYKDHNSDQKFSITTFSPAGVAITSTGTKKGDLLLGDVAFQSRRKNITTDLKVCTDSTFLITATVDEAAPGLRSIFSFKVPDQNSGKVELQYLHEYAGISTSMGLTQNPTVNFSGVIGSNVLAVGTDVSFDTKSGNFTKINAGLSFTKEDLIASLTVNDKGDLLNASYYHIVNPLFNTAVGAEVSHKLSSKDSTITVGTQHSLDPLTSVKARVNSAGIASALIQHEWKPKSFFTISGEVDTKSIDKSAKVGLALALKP

Measured: binding result

B1: 6×His-tagged ATG8e (natural protein, Arabidopsis, UniProt Q8S926 1-118, looked up)
chain: MNKGSIFKMDNDFEKRKAEAGRIREKYPDRIPVIVEKAEKSEVPNIDKKKYLVPSDLTVGQFVYVIRKRIKLSAEKAIFIFVDNVLPPTGELMSSVYEDKKDEDGFLYITYSGENTFG
binds: [1] | [2] | [3]

B2: ATG8e with UDS mutation (I78A, F79A, I80A) (natural protein, Arabidopsis, UniProt Q8S926 1-118, looked up)
chain: B1 chain with I78A, F79A, I80A
binds: [1] | [2] | [3]
